From article doi:10.1101/2020.04.10.035014 (bioRxiv, 2020) come the findings set out here.

B3: C-terminus of INTS3 (INTS3c; residues 560-905 and 915-995, co-expressed) (domain or fragment, human)
chain 1: TVVEEPVDITPYLDQLDESLRDKVLQLQKGSDTEAQCEVMQEIVDQVLEEDFDSEQLSVLASCLQELFKAHFRGEVLPEEITEESLEESVGKPLYLIFRNLCQMQEDNSSFSLLLDLLSELYQKQPKIGYHLLYYLRASKAAAGKMNLYESFAQATQLGDLHTCLMMDMKACQEDDVRLLCHLTPSIYTEFPDETLRSGELLNMIVAVIDSAQLQELVCHVMMGNLVMFRKDSVLNILIQSLDWETFEQYCAWQLFLAHNIPLETIIPILQHLKYKEHPEALSCLLLQLRREKPSEEMVKMVLSRPCHPDDQFTTSILRHWCMKHDELLAEHIKSLLIKNNSLPRK
chain 2: KLAQLTLEQILEHLDNLRLNLTNTKQNFFSQTPILQALQHVQASCDEAHKMKFSDLFSLAEEYEDSSTKPPKSRRKAALSS

For series [1], the target named is B3. Put plainly: crystal structure.
The series “SEC” concerns the molecule itself. Put plainly: SEC. In general terms: In gel filtration, larger molecules generally elute earlier.
The series “crystal structure” deals with the molecule itself. In words: crystal structure.

B1: C-terminus of INTS6 (INTS6c; residues 800-887) (domain or fragment, human, UniProt Q9UL03 800-887, looked up)
chain: MHCRSHEEVNTELKAQIMKEIRKPGRKYERIFTLLKHVQGSLQTRLIFLQNVIKEASRFKKRMLIEQLENFLDEIHRRANQINHINSN
As to B1, in series [1], the binding result is recorded as “binds”.

B2: INTS3(1-995) (domain or fragment, human, UniProt Q68E01 1-995, looked up)
chain: MELQKGKGAAAAAAASGAAGGGGGGAGAGAPGGGRLLLSTSLDAKDELEERLERCMSIVTSMTAGVSEREANDALNAYVCKGLPQHEEICLGLFTLILTEPAQAQKCYRDLALVSRDGMNIVLNKINQILMEKYLKLQDTCRTQLVWLVRELVKSGVLGADGVCMTFMKQIAGGGDVTAKNIWLAESVLDILTEQREWVLKSSILIAMAVYTYLRLIVDHHGTAQLQALRQKEVDFCISLLRERFMECLMIGRDLVRLLQNVARIPEFELLWKDIIHNPQALSPQFTGILQLLQSRTSRKFLACRLTPDMETKLLFMTSRVRFGQQKRYQDWFQRQYLSTPDSQSLRCDLIRYICGVVHPSNEVLSSDILPRWAIIGWLLTTCTSNVAASNAKLALFYDWLFFSPDKDSIMNIEPAILVMHHSMKPHPAITATLLDFMCRIIPNFYPPLEGHVRQGVFSSLNHIVEKRVLAHLAPLFDNPKLDKELRAMLREKFPEFCSSPSPPVEVKIEEPVSMEMDNHMSDKDESCYDNAEAAFSDDEEDLNSKGKKREFRFHPIKETVVEEPVDITPYLDQLDESLRDKVLQLQKGSDTEAQCEVMQEIVDQVLEEDFDSEQLSVLASCLQELFKAHFRGEVLPEEITEESLEESVGKPLYLIFRNLCQMQEDNSSFSLLLDLLSELYQKQPKIGYHLLYYLRASKAAAGKMNLYESFAQATQLGDLHTCLMMDMKACQEDDVRLLCHLTPSIYTEFPDETLRSGELLNMIVAVIDSAQLQELVCHVMMGNLVMFRKDSVLNILIQSLDWETFEQYCAWQLFLAHNIPLETIIPILQHLKYKEHPEALSCLLLQLRREKPSEEMVKMVLSRPCHPDDQFTTSILRHWCMKHDELLAEHIKSLLIKNNSLPRKRQSLRSSSSKLAQLTLEQILEHLDNLRLNLTNTKQNFFSQTPILQALQHVQASCDEAHKMKFSDLFSLAEEYEDSSTKPPKSRRKAALSS
A word on the stoichiometry N: it is the number of molecules, sites or subunits per partner or assembly. Take B2: the “stoichiometry N” value in “SEC” was found to be 2.
Regarding B3, the “stoichiometry N” value in the series “crystal structure” is 2.
